The values that follow come from patent US20150315275A1 (AstraZeneca / MedImmune, published 2015).

Values joined by “and” are separate entries in the source; they are usually repeats but may differ in a detail not shown here. Identical values can stand only once.

For assay [1], the target named is T1, B7-H4ECD his-tagged protein (Sinobiologics) (human, UniProt Q7Z7D3 25-259).
T1 construct: Bought protein; Result paragraph calls the target human B7-H4; also called B7-H4 extracellular domain; not shown: his tag
T1 sequence: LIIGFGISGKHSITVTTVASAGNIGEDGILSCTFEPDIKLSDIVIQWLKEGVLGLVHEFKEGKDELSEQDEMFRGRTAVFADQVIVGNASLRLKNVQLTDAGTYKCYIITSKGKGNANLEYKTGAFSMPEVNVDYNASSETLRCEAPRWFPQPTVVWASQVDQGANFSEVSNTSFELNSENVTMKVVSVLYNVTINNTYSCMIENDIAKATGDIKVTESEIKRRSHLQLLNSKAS
Put plainly: ELISA, B7-H4ECD his-tagged protein coated. Here is the method: 100 μl 1 μg/ml B7-H4ECD his-tagged protein (Sinobiologics) diluted in PBS was immobilized on flat bottom 96 well plate (Costar 9017) overnight at 4° C. Plates were washed twice with PBS+0.1% PS-20 and blocked with 200 μl/well PBS 10% FBS at RT for 1 hr. 100 μl chimeric 6H3 and 14 selected 6H3 humanized variants diluted in PBS 10% FBS were added to each well and incubated at RT for 1 hr. Plates were washed three times and 100 μl 1 μg/ml anti-human Ig HRP (Sigma) was added to each well and incubated at RT for 1 hr. Plates were washed six times and 100 μl TMB substrate (SurModics) was added to each well for 5-15 mins 100 μl stop solution (0.1M Sulfuric acid) was added to each well. Plates were read at Absorbance 450 nm by PerkinElmer EnVision 2104 Multilabel Reader.

Assay [2] has as its target T2, mouse B7-H4ECD mIgG2a Fc fusion protein (mouse, UniProt Q7TSP5 25-257, limits assumed).
T2 construct: also called mouse B7-H4-mIg fusion protein; Mouse B7-H4-mouse-Ig Fusion Protein; not shown: mouse IgG2a Fc
T2 sequence: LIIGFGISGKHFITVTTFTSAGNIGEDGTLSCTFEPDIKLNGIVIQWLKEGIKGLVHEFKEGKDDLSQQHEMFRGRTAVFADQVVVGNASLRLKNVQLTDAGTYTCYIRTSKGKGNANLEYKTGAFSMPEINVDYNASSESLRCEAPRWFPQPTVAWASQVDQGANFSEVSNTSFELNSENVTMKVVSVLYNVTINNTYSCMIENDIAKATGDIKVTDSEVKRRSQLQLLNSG
Put plainly: ELISA, mouse B7-H4ECD mIgG2a Fc fusion coated. Here is the method:
100 μg/ml mouse B7-H4ECD mIgG2a Fc fusion protein diluted in PBS was immobilized on flat bottom 96 well plate (Costar 9017) overnight at 4° C. Plates were washed twice with PBS+0.1% PS-20 and blocked with 200 μl/well PBS 10% FBS at RT for 1 hr. 100 μl chimeric 6H3 and 14 selected 6H3 humanized variants diluted in PBS 10% FBS were added to each well and incubated at RT for 1 hr. Plates were washed three times and 100 μl 1 μg/ml anti-human Ig HRP (Sigma) was added to each well and incubated at RT for 1 hr. Plates were washed six times and 100 μl TMB substrate (SurModics) was added to each well for 5-15 mins 100 μl stop solution (0.1M Sulfuric acid) was added to each well. Plates were read at Absorbance 450 nm by PerkinElmer EnVision 2104 Multilabel Reader.
A general note: In an ELISA, binding on a coated surface is turned into a signal by an enzyme label.

Assay [3] deals with T3, human B7-H4 expressed on cells (human, UniProt Q7Z7D3 25-282).
T3 construct: the cell line is named under assay or readout; also called full length human B7-H4 on HEK293 cells; 293T.hB7-H4
T3 sequence: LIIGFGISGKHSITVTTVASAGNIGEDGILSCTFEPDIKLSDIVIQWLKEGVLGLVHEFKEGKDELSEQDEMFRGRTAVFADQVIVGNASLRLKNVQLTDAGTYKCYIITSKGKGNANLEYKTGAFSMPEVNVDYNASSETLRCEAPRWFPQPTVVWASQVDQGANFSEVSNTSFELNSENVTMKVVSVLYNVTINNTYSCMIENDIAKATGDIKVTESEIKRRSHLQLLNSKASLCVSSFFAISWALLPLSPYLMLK
Put plainly: flow cytometry on HEK293.hB7-H4 transfectants, one-site specific binding fit. The procedure:
For each staining, 0.2 million HEK293.hB7-H4 transfectants were resuspended in 100 μl flow cytometry buffer (PBS+2% FBS). A serial dilution of chimeric 6H3 and 14 humanized variants of 0, 0.1 ng, 0.3 ng, 1 ng, 3 ng, 10 ng, 30 ng, 100 ng, 300 ng, 1 μg, 3 μg and 10 μg were added to the cells and incubated at 4° C. for 30 min. Cells were then washed twice with 2 ml flow cytometry buffer, and resuspended in 100 μl flow cytometry buffer. 1 μl anti-hIg PE secondary antibody (Biolegend) was added and incubated with the cells for 15 mins Samples were then washed and resuspended in 100 μl flow cytometry buffer. Flow Cytometry data was acquired using BD Canto (BD Biosciences) in plate format and analyzed by FlowJo software. Staining data (MFI) was then input into Prism 5 software to generate binding curve. Curve-fit using one-site specific binding algorithm calculates individual KD for each variant.
(A flow cytometer gives signals particle by particle.)

The target of assay [4] is T4, B7-H4-Ig fusion protein (human).
T4 construct: also called human B7-H4 Ig
Put plainly: competition ELISA on B7-H4-Ig-coated plate, Plate 1; competitor biotinylated mouse 6H3 (5 ng/ml). Here is the method: (§1) A 12-point, 3-fold dilution series of 14 humanized 6H3 antibody variants was prepared ranging from 100 μg/ml to 0.5 ng/ml. Dilutions were prepared in assay diluent containing biotinylated mouse anti-human B7-H4 6H3 (SEQ ID NOS:3 and 5 for light chain variable region and heavy chain variable region respectively) at 5 ng/ml. Antibodies were allowed to bind to B7-H4-Ig-coated assay plates (200 ng/well) for 1 hour at room temperature and detected with streptavidin HRP.

For assay [5], the target named is T3, human B7-H4 expressed on cells. Put plainly: saturation binding, flow cytometry on 624mel/B7-H4 cells, biotinylated mAb, azide-treated cells; unit not given. The procedure:
A saturation binding experiment was carried out on 624mel/B7-H4 cells using the chimeric 6H3 mAb and humanized variants of 6H3. Briefly, 50,000 cells were pretreated with 0.1% azide on ice for 30 minutes to inhibit B7-H4 internalization then stained for 30 minutes with biotinylated anti-B7-H4 mAbs. The mAbs were diluted in a 12-point, 3-fold dilution series ranging from 200 μg/ml down to 1 ng/ml. Cell were stained with streptavidin PE for 10 minutes, washed, fixed and analyzed by flow cytometry.
FIGS. 35A-35B are binding curves for the raw (FIG. 35A) and background subtracted data (FIG. 35B). […] The subtracted values were used to determine the Kd and Bmax. The antibodies appear to fall into two groups based on Kd values (Table 10).

For assay [6], the target named is T4, B7-H4-Ig fusion protein. Put plainly: competition ELISA on B7-H4-Ig-coated plate, Plate 2; competitor biotinylated mouse 6H3 (5 ng/ml). The procedure: as §1

B1: humanized 6H3 variant 4 (antibody, V domains shown)
VH: EVQLVQSGAEMKKPGASVKVSCKASGYTFTDYYMNWVRQAPGQSLEWIGVINPYNGDTTYNQKFQGRVTVTVDKSATTAYMELSSLRSEDTAVYYCARYPESTYWGQGTLVTVSS
VL: DVVMTQSPLSLPVTLGQPASISCRSSQSLVHINGNTYLHWYQQRPGQSPRVLIYKVSNRFSGVPDRFSGSGSGTDFTLKISRVEAEDVGVYFCSQSTHVPLTFGGGTKVEIK
notes: also called V4; Variant 4 (antibody)
Broadly, the EC50 is the concentration that produces a half-maximal response. Low values mean an effect from little substance, high ones a need for much substance. As a reminder, the Kd is the concentration at which binding is half-saturated. Read a high Kd as lower affinity. For the molecule B1, the EC50 was 1.16 nM in assay [1]; 0.08 nM in assay [2]; 2.95 µg/mL and 19.7 nM with B7-H4-Ig fusion protein [4]. Also, the “Bmax(MFI)” value in assay [3] amounted to 580 MFI. In assay [3], this molecule came in with a Kd of 5.2 nM.

B2: humanized 6H3 variant 1 (antibody, V domains shown)
VH: QVQLVQSGAEVKKPGASVKVSCKASGYTFTDYYMHWVRQAPGQGLEWMGIINPYNGDTSYAQKFQGRVTMTRDTSTSTVYMELSSLRSEDTAVYYCARYPESTYWGQGTLVTVSS
VL: DVVMTQSPLSLPVTLGQPASISCRSSQSLVHINGNTYLHWYQQRPGQSPRVLIYKVSNRFSGVPDRFSGSGSGTDFTLKISRVEAEDVGVYFCSQSTHVPLTFGGGTKVEIK
notes: also called V1; H1A L1B
As to B2, a half-maximal effect in assay [2] (EC50) was put at 0.1 nM.

B3: humanized 6H3 variant 8 (antibody, V domains shown)
VH: QVQLVQSGAEVKKPGASVKVSCKASGYTFTDYYMHWVRQAPGQGLEWMGIINPYNGDTSYAQKFQGRVTMTRDTSTSTVYMELSSLRSEDTAVYYCARYPESTYWGQGTLVTVSS
VL: DIVMTQTPLSLPVTLGQPASISCRSSQSLVHINGNTYLHWYQQRPGQSPRVLIYKVSNRFSGVPDRFSGSGSGTDFTLKISRVEAEDVGVYFCSQSTHVPLTFGQGTKVEIK
notes: also called V8; H1A L2B
In assay [2], B3 registered an EC50 of 0.06 nM.

B4: humanized 6H3 variant 2 (antibody, V domains shown)
VH: EVQLVQSGAEVKKPGASVKVSCKASGYTFTDYYMNWVRQAPGQGLEWIGIINPYNGDTSYNQKFKGRVTLTVDKSTSTAYMELSSLRSEDTAVYYCARYPESTYWGQGTLVTVSS
VL: DVVMTQSPLSLPVTLGQPASISCRSSQSLVHINGNTYLHWYQQRPGQSPRVLIYKVSNRFSGVPDRFSGSGSGTDFTLKISRVEAEDVGVYFCSQSTHVPLTFGGGTKVEIK
notes: also called V2; 6H3 V2
As for B4, the EC50 in assay [1] is 0.51 nM; in assay [2] it was 0.08 nM; with B7-H4-Ig fusion protein [4] it was 2.46 µg/mL and 16.4 nM. Moreover, the “Bmax(MFI)” value in assay [3] worked out at 603 MFI. This molecule also had a Kd in assay [3] of 2.4 nM. The molecule further displayed a Bmax in assay [5] of 4650.

B5: humanized 6H3 variant 5 (antibody, V domains shown)
VH: EVQLVQSGAEVKKPGASVKVSCKASGYTFTDYYMNWVRQAPGQGLEWIGIINPYNGDTSYNQKFKGRVTLTVDKSTSTAYMELSSLRSEDTAVYYCARYPESTYWGQGTLVTVSS
VL: DVVMTQSPLSLPVTLGQPASISCRSSQSLVHINGNTYLHWYLQRPGQSPKVLIYKVSNRFSGVPDRFSGSGSGTDFTLKISRVEAEDVGVYFCSQSTHVPLTFGGGTKVEIK
notes: also called V5; Variant 5 (antibody)
With B5, the 50% effective concentration (EC50) in assay [1] is 0.95 nM; in assay [2], 0.05 nM; with B7-H4-Ig fusion protein [4] it was 3.62 µg/mL and 24.2 nM. In assay [3], the “Bmax(MFI)” value was determined as 646 MFI. This molecule also displayed a Kd in assay [3] of 4.2 nM.

B6: humanized 6H3 variant 3 (antibody, V domains shown)
VH: EVQLVQSGAEMKKPGASVKVSCKASGYTFTDYYMNWVRQAPGQSLEWMGVINPYNGDTTYNQKFQGRVTVAVDKSATTAYMELSSLRSEDTAVYYCARYPESTYWGQGTLVTVSS
VL: DVVMTQSPLSLPVTLGQPASISCRSSQSLVHINGNTYLHWYQQRPGQSPRVLIYKVSNRFSGVPDRFSGSGSGTDFTLKISRVEAEDVGVYFCSQSTHVPLTFGGGTKVEIK
notes: also called V3; H2B L1B
B6: the EC50 in assay [1] is 1.19 nM; in assay [2], 0.1 nM; with B7-H4-Ig fusion protein [4] it was 3.09 µg/mL and 20.6 nM. In assay [3], the “Bmax(MFI)” value is 583 MFI. For the same molecule, binding in assay [3] was characterised by a dissociation constant (Kd) of 6 nM.

B7: humanized 6H3 variant 6 (antibody, V domains shown)
VH: EVQLVQSGAEMKKPGASVKVSCKASGYTFTDYYMNWVRQAPGQSLEWMGVINPYNGDTTYNQKFQGRVTVAVDKSATTAYMELSSLRSEDTAVYYCARYPESTYWGQGTLVTVSS
VL: DVVMTQSPLSLPVTLGQPASISCRSSQSLVHINGNTYLHWYLQRPGQSPKVLIYKVSNRFSGVPDRFSGSGSGTDFTLKISRVEAEDVGVYFCSQSTHVPLTFGGGTKVEIK
notes: also called V6; Variant 6 (antibody)
Consider B7, for which the EC50 in assay [1] was 1.64 nM; in assay [2] it was 0.13 nM; in the assay with B7-H4-Ig fusion protein [4] it was 2.53 µg/mL and 16.9 nM. Further, the “Bmax(MFI)” value in assay [3] came out at 526 MFI. Further, the Kd in assay [3] is 5 nM. The molecule also returned a Bmax in assay [5] of 6420.

B8: humanized 6H3 variant 10 (antibody, V domains shown)
VH: EVQLVQSGAEMKKPGASVKVSCKASGYTFTDYYMNWVRQAPGQSLEWMGVINPYNGDTTYNQKFQGRVTVAVDKSATTAYMELSSLRSEDTAVYYCARYPESTYWGQGTLVTVSS
VL: DIVMTQTPLSLPVTLGQPASISCRSSQSLVHINGNTYLHWYQQRPGQSPRVLIYKVSNRFSGVPDRFSGSGSGTDFTLKISRVEAEDVGVYFCSQSTHVPLTFGQGTKVEIK
notes: also called V10; H2B L2B
For B8, the EC50 is 0.89 nM in assay [1]; 0.13 nM in assay [2]; 2.13 µg/mL and 14.2 nM with B7-H4-Ig fusion protein [6]. Further, the “Bmax(MFI)” value in assay [3] was 662 MFI. For the same molecule, the affinity in assay [3], expressed as Kd, was 5.5 nM.

B9: humanized 6H3 variant 7 (antibody, V domains shown)
VH: EVQLVQSGAEMKKPGASVKVSCKASGYTFTDYYMNWVRQAPGQSLEWIGVINPYNGDTTYNQKFQGRVTVTVDKSATTAYMELSSLRSEDTAVYYCARYPESTYWGQGTLVTVSS
VL: DVVMTQSPLSLPVTLGQPASISCRSSQSLVHINGNTYLHWYLQRPGQSPKVLIYKVSNRFSGVPDRFSGSGSGTDFTLKISRVEAEDVGVYFCSQSTHVPLTFGGGTKVEIK
notes: also called V7; 6H3 V7
For B9, the EC50 in assay [1] is 1.07 nM; in assay [2], 0.11 nM; in the assay with B7-H4-Ig fusion protein [4], 2.63 µg/mL and 17.5 nM. Also, the “Bmax(MFI)” value in assay [3] is 513 MFI. The affinity in assay [3], expressed as Kd, was 6.5 nM. The Bmax in assay [5] came to 6080.
